In paper PMC12408356 (Nature Microbiology, 2025):

B1: CR1-07 (antibody, V domains shown)
VH: QVQLVESGGGVVHPGRSLRLSCAASGFTFGTSIMHWVRQAPGKGMQWVAQISHDESRKFYSDSVKGRFTVSRDNSKNTLFLEMSSLRIEDTAVYYCAKDLSPPYSYAWDIFQYWGQGSLVTVS
VL: DIVMTQSPESLAVSLGERATINCKSSQSVLYSSRSDNKDYLAWYQQKPGQSPKLLIYWASTRESGVPERFTGSGSGTDFTLSISSLQAEDVAVYYCQQYYSSPPTFGGGTKVELK
B2: CR1-10 (antibody, V domains shown)
VH: QVQLQESGPGLVKPSQTLSLTCSVSGGSIGGSSYYWSWIRHHPGKGLEWIGYINYRGITHYNAALKSRVSMSVETSQNHFSLQLTSVTAADTAVYYCARLTSDCSGGNCYQAFDYWGQGSLVSVS
VL: EIVLTQSPGTLSLSPGETATLSCRASQSVSSSYLAWYQQKPGQAPRLLIYGASGRATGIPDRFSGSGSGTDFTLTISRLEPEDFAVYYCQQYGRSGYTFGQGTKLEIK
B3: CR1-28 (antibody, V domains shown)
VH: QVQLVESGGGVVQPGRSLRLSCAASGFTFSSSAMHWVRQAPGKGLEWVAVIWSDGSNENYADSVKGRFTISRDNSKNTLYLQMSSLRAEDTAVYYCATDKTYVSGYTSTWYYFNYWGQGTLVTVS
VL: DIQMTQSPSTLSASVGDRVTITCRASQSIDNWLAWYQQKPGKAPKLLIYTASRLESGVPSRFSGSGSGTEFTLTISSLQPDDFATYYCQHRTFGQGTKVEIK

Each binder was assayed against T1, JUNV GPC MC2-TS (wild-type Junin virus glycoprotein complex) (Junin virus, MC2 strain, UniProt P26313, myristoyl on G2 | N-linked glycans | N-linked glycans) (assay: flow cytometry on cells). Conditions: one partner purified.
T1 construct: copies: 3 + 3 + 3
T1 sequence (P26313 2-58, chain 1 of 3): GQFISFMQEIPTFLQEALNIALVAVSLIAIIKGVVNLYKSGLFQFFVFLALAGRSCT
T1 sequence (P26313 59-251, chain 2 of 3): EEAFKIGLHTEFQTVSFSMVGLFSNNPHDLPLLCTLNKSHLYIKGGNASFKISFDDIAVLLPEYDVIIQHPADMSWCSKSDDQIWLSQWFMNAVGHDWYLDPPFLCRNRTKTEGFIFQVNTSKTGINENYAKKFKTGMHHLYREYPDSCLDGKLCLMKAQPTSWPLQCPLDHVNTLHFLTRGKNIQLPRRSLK
T1 sequence (P26313 252-485, chain 3 of 3): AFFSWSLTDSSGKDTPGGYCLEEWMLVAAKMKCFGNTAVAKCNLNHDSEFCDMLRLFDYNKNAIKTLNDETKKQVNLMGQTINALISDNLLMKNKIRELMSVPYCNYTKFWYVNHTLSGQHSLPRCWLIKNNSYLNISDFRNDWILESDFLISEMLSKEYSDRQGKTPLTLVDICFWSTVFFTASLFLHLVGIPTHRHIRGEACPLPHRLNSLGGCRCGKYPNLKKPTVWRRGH

Row | Binder | binding result
1 | B1 | binds
2 | B2 | binds
3 | B3 | binds
